According to the supplement of paper PMC10567573:

B1: POMT2 (parent)
chain: VKYNSCADRPFSAPWWFWLSLTGV
B2: WDR88 (parent)
chain: LLTITKAHSNAISNCCFTFSGHFL
B3: RSPH3 (parent)
chain: FIPAKTGKDVATQILEGELFDFDL

Variants of: B1
Assay: protein stability index of a GFP-peptide fusion (GPS, HEK-293T) (PSI 1-6); higher = more stable
Settings: c terminus: a fixed tail appended
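Note: lentivirally expressed fusions sorted by FACS into six bins by GFP to DsRed ratio, PSI derived from sequencing read proportions per bin multiplied by bin number.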

Protein stability index of substitutions, site by site:
Y3: P 2.55; K 2.11; D 2.19; Q 1.41
N4: E 3.12; T 3.25; V 3.46
L19: I 1.76; E 1.65; T 1.64; F 2.95; N 2.79
R9: G 3.51; L 2; N 3.39; I 3.57; A 2.8; F 3.16; W 3.34
P10: L 2.5; M 1.94; A 2.24; E 1.63; K 4.18
F17: W 1.33; V 2.16; K 2.65; T 3.3
L21: K 1.12; A 3.62; N 2.88; P 2.68
F11: G 2.84; S 1
A7: Y 1.39
C6: I 2.36; T 1.92; N 1.02; L 2.11; D 2.84; S 2.14; W 1; G 1.73
V1: R 1.98; C 2.99; L 1.66; A 3.3; H 1.1
T22: I 1.56; A 1.62; V 3.31; N 1.29; K 2.12
D8: R 3.03; W 1.26; G 2.4; L 3; I 3.67; T 3.21; Y 2.29; P 3.01; S 2.54
A13: S 2.06; G 2.11; E 2.18; H 1.18; R 1
W16: P 2.08; L 1.8; T 3.23; D 3.79; I 3.2; V 2.01; Q 1.78
V24: M 2.61; E 1; Y 2.1; A 2.85; N 1.81; T 1.5; I 2.98; L 5.16; R 1.87
S5: D 4.19; A 4.07; P 2.39
W15: E 3.49; K 3.58; H 2.54
S12: A 3.27; F 2.65; I 3.2
G23: A 1.77; F 2.65; E 5.35; I 2.22; T 2.04; C 1.24; N 1.69; V 2.98; M 1.55; W 1.21; S 1.47; Q 4.6
K2: R 2.2; T 1.61; N 2.4; Y 3.34; F 2.75
P14: Y 1.21; A 2.21; F 1.35; G 2.4; C 2.27; V 2.71; R 3.92
S20: F 1.04; I 2.08; C 2.22; L 1.47; M 3.17; Y 2.25; H 2.9
W18: S 3.44; T 3.52; Y 2.04; V 2.56; C 2.54; A 2.22; G 3.3

Variants of: B2
Assay: as above
Settings: c terminus: a fixed tail appended

Protein stability index, by site and new letter:
I4: D 3.07; R 2.4; E 1.99; Q 1.8; C 2.19; L 2.9; T 2.8; G 1.9; N 2.89; A 2.47; Y 2.38; P 2.15; F 3.68; H 2.36; V 3.9; S 2.5; M 3.12; K 2.5
T5: G 2.73; D 1.65; C 2.54; E 2.58; I 2.02; K 2.37; M 3.85; A 3.41; P 2.98; L 2.03; F 4.83; N 1.67; H 2.9; Q 1.69; R 2.72
L1: H 2.46; K 1.85; R 2.75; Q 1.59; E 1.76; G 1.49; T 3.09; A 3.61; S 1.76; N 2.47; F 2.52; Y 4.04; D 1.67; I 4.01; C 2.81; M 1.95; P 2.81; V 2.93; W 3.03
T3: Y 2.92; S 3.22; I 2.74; G 1.94; V 3.68; L 2.37; W 2.29; E 2.47; N 3; Q 3.3; C 2.84; D 2.61; M 3.13; F 3.14; H 2.57; A 2.93; P 2.97
L2: M 2.53; G 2.01; A 3.15; F 2.44; I 3.28; R 2.41; C 2.18; V 2.33; S 2.4; P 2.12; K 2.85; E 1.57; Q 2.75; N 2.82; H 2.28; T 2.71; W 3.22; D 1.4; Y 2.1

Variants of: B3
Assay: as above
Settings: c terminus: a fixed tail appended

Protein stability index, by site and new letter:
D21: A 2.33; P 2.47; F 2.45; E 1.49; W 3.1; I 2.72; T 3.06; Y 2.78; L 3; N 1.53; C 2.71; M 2.98; S 2.54; R 1.8; Q 1.53; G 2.24; K 1.96; V 1.66; H 1.79
L19: D 2.59; A 2.2; Q 1.66; V 1.74; N 1.93; Y 2.02; M 1.83; P 1.98; K 2.21; T 2.28; E 2.2; S 1.98; W 1.96; R 1.6; H 2.01; F 1.7; G 2.31; C 1.83; I 2.05
L24: W 3.71; Y 1.75; P 2.47; V 1.85; E 2.78; T 2.39; R 2.31; F 1.95; S 2.36; G 2.75; A 2.67; C 2.36; I 2; D 3.04; N 2.43; H 2.68; M 2.23; K 2.79; Q 2.7
D23: S 2; H 1.87; W 2.51; V 1.59; G 2.02; T 2.24; L 1.98; N 1.84; F 1.34; A 2.12; R 1.42; Y 2.24; P 2.08; Q 1.99; K 2.12; E 1.89; C 2.08; I 1.24; M 1.42
F22: I 1.68; L 1.98; V 2.21; W 1.91; Y 2.12; A 2.31; E 3.2; T 2.67; K 2.74; D 3.7; R 2.42; Q 2.84; S 2.86; G 2.81; N 2.87; M 2.54; C 1.84; H 2.56; P 1.82
F20: N 2.76; Q 2.44; D 2.92; L 2.25; P 2.37; W 2.26; M 1.88; C 2.16; I 1.72; A 2.47; V 2.71; H 1.59; R 1.86; T 2.13; K 2.08; E 2.6; G 1.84; S 2.52; Y 2.01
E18: W 1.95; Y 1.59
